Test results as given in patent US20030124598A1.

Target: GAL4-PGC-1β (yeast; mouse) (UniProt P04386)
Experiment: cell-based or functional assay

Substance: Flag-tagged HCF
- transcriptional activity of PGC-1β in a cotransfection assay (luciferase, BOSC cells, FIG. 9A): 3 fold
